Measured values reported in patent publication US20250186614A1, “COMPACT DRUG RESPONSIVE DOMAINS FOR REGULATION OF FUNCTION/ABUNDANCE AND DELIVERY OF POLYPEPTIDE PAYLOADS” (OBSIDIAN THERAPEUTICS, INC., priority 2022, published 2025).
Where two headings read alike, the source gives them in different places.

Assay: Example 4: dose response of FKBP constructs 160-255, Ec50, Ec90 and fold change (raw and normalized to mCherry)
Assay type: cell-based
Conditions: for FC (fold change): fold change during initial analysis
Description: Additional experiments were performed for constructs FKBP-160-292.

[1] = FKBP constructs 160-255, not normalized, read-out: EC90
[2] = normalized to mCherry, read-out: EC90 (Norm)

Row | Molecule | EC90 [1] [nM] | FC (fold change) | EC90 [2] [nM]
1 | FKBP-235 (protein, Description of sequence: Construct Name: FKBP-235; Mutation(s): Q72R Q84E A117W V85R DRD D90T M54A) HCPIKSRKGDVLHAHYTGKLEDGTEFDSSLPRNQPFVFSLGTGERIKGWTQGLLGMCEGEKRKLVIPSELGYGERGWPPKIPGGATLVFEVELLKIER | 9980 | 23.5 | 11100
2 | FKBP-236 (protein, Description of sequence: Construct Name: FKBP-236; Mutation(s): Q72R Q84E A117W DRD G113N) HCPIKSRKGDVLHMHYTGKLEDGTEFDSSLPRNQPFVFSLGTGEVIKGWDQGLLGMCEGEKRKLVIPSELGYNERGWPPKIPGGATLVFEVELLKIER | 1810 | 39.1 | 1960
3 | FKBP-237 (protein, Description of sequence: Construct Name: FKBP-237; Mutation(s): Q72R Q84E A117W V85R DRD G113N) HCPIKSRKGDVLHMHYTGKLEDGTEFDSSLPRNQPFVFSLGTGERIKGWDQGLLGMCEGEKRKLVIPSELGYNERGWPPKIPGGATLVFEVELLKIER | 550 | 24.1 | 484
4 | FKBP-238 (protein, Description of sequence: Construct Name: FKBP-238; Mutation(s): Q72R Q84E A117W V85R DRD G113N M54A) HCPIKSRKGDVLHAHYTGKLEDGTEFDSSLPRNQPFVFSLGTGERIKGWDQGLLGMCEGEKRKLVIPSELGYNERGWPPKIPGGATLVFEVELLKIER | 846 | 26.8 | 863
5 | FKBP-165 (protein, Description of sequence: Construct Name: FKBP-165; Mutation(s): Q72R Q84E A117W DRD M54A P119V V85R) HCPIKSRKGDVLHAHYTGKLEDGTEFDSSLPRNQPFVFSLGTGERIKGWDQGLLGMCEGEKRKLVIPSELGYGERGWPVKIPGGATLVFEVELLKIER | 970 | 47.6 | 984
6 | FKBP-239 (protein, Description of sequence: Construct Name: FKBP-239; Mutation(s): Q72R Q84E A117W DRD E61Y) HCPIKSRKGDVLHMHYTGKLYDGTEFDSSLPRNQPFVFSLGTGEVIKGWDQGLLGMCEGEKRKLVIPSELGYGERGWPPKIPGGATLVFEVELLKIER | 223 | 31.1 | 243
7 | FKBP-240: FKBP13 DRD-AcGFP construct of Table 10 (protein, Description of sequence: Construct Name: FKBP-240; Mutation(s): Q72R Q84E A117W V85R DRD E61Y) HCPIKSRKGDVLHMHYTGKLYDGTEFDSSLPRNQPFVFSLGTGERIKGWDQGLLGMCEGEKRKLVIPSELGYGERGWPPKIPGGATLVFEVELLKIER | 111 | 43.7 | 111
8 | FKBP-241 (protein, Description of sequence: Construct Name: FKBP-241; Mutation(s): Q72R Q84E A117W V85R DRD E61Y M54A) HCPIKSRKGDVLHAHYTGKLYDGTEFDSSLPRNQPFVFSLGTGERIKGWDQGLLGMCEGEKRKLVIPSELGYGERGWPPKIPGGATLVFEVELLKIER | 221 | 43.9 | 222
9 | FKBP-242 (protein, Description of sequence: Construct Name: FKBP-242; Mutation(s): Q72R Q84E A117W DRD P118S) HCPIKSRKGDVLHMHYTGKLEDGTEFDSSLPRNQPFVFSLGTGEVIKGWDQGLLGMCEGEKRKLVIPSELGYGERGWSPKIPGGATLVFEVELLKIER | 466 | 24.4 | 539
10 | FKBP-243: FKBP13 DRD-AcGFP construct of Table 10 (protein, Description of sequence: Construct Name: FKBP-243; Mutation(s): Q72R Q84E A117W V85R DRD P118S) HCPIKSRKGDVLHMHYTGKLEDGTEFDSSLPRNQPFVFSLGTGERIKGWDQGLLGMCEGEKRKLVIPSELGYGERGWSPKIPGGATLVFEVELLKIER | 125 | 37.1 | 127
11 | FKBP-244: FKBP13 DRD-AcGFP construct of Table 10 (protein, Description of sequence: Construct Name: FKBP-244; Mutation(s): Q72R Q84E A117W V85R DRD P118S M54A) HCPIKSRKGDVLHAHYTGKLEDGTEFDSSLPRNQPFVFSLGTGERIKGWDQGLLGMCEGEKRKLVIPSELGYGERGWSPKIPGGATLVFEVELLKIER | 307 | 51.2 | 328
12 | FKBP-245 (protein, Description of sequence: Construct Name: FKBP-245; Mutation(s): Q72R Q84E A117W DRD S69H) HCPIKSRKGDVLHMHYTGKLEDGTEFDSHLPRNQPFVFSLGTGEVIKGWDQGLLGMCEGEKRKLVIPSELGYGERGWPPKIPGGATLVFEVELLKIER | 5830 | 40.6 | 5870
13 | FKBP-246 (protein, Description of sequence: Construct Name: FKBP-246; Mutation(s): Q72R Q84E A117W V85R DRD S69H) HCPIKSRKGDVLHMHYTGKLEDGTEFDSHLPRNQPFVFSLGTGERIKGWDQGLLGMCEGEKRKLVIPSELGYGERGWPPKIPGGATLVFEVELLKIER | 1530 | 30.4 | 1520
14 | FKBP-247 (protein, Description of sequence: Construct Name: FKBP-247; Mutation(s): Q72R Q84E A117W V85R DRD S69H M54A) HCPIKSRKGDVLHAHYTGKLEDGTEFDSHLPRNQPFVFSLGTGERIKGWDQGLLGMCEGEKRKLVIPSELGYGERGWPPKIPGGATLVFEVELLKIER | 2810 | 35.0 | 2950
15 | FKBP-248 (protein, Description of sequence: Construct Name: FKBP-248; Mutation(s): Q72R Q84E A117W DRD S68D) HCPIKSRKGDVLHMHYTGKLEDGTEFDDSLPRNQPFVFSLGTGEVIKGWDQGLLGMCEGEKRKLVIPSELGYGERGWPPKIPGGATLVFEVELLKIER | 1800 | 50.1 | 1880
16 | FKBP-249 (protein, Description of sequence: Construct Name: FKBP-249; Mutation(s): Q72R Q84E A117W V85R DRD S68D) HCPIKSRKGDVLHMHYTGKLEDGTEFDDSLPRNQPFVFSLGTGERIKGWDQGLLGMCEGEKRKLVIPSELGYGERGWPPKIPGGATLVFEVELLKIER | 472 | 33.7 | 494
17 | FKBP-250 (protein, Description of sequence: Construct Name: FKBP-250; Mutation(s): Q72R Q84E A117W DRD E130F) HCPIKSRKGDVLHMHYTGKLEDGTEFDSSLPRNQPFVFSLGTGEVIKGWDQGLLGMCEGEKRKLVIPSELGYGERGWPPKIPGGATLVFFVELLKIER | 101 | 22.0 | 114
18 | FKBP-252 (protein, Description of sequence: Construct Name: FKBP-252; Mutation(s): Q72R Q84E A117W DRD I136P) HCPIKSRKGDVLHMHYTGKLEDGTEFDSSLPRNQPFVFSLGTGEVIKGWDQGLLGMCEGEKRKLVIPSELGYGERGWPPKIPGGATLVFEVELLKPER | – | 1.3 | –
19 | FKBP-253 (protein, Description of sequence: Construct Name: FKBP-253; Mutation(s): Q72R Q84E A117W V85R DRD I136P) HCPIKSRKGDVLHMHYTGKLEDGTEFDSSLPRNQPFVFSLGTGERIKGWDQGLLGMCEGEKRKLVIPSELGYGERGWPPKIPGGATLVFEVELLKPER | – | 2.3 | –
20 | FKBP-254 (protein, Description of sequence: Construct Name: FKBP-254; Mutation(s): Q72R Q84E A117W DRD G99R) HCPIKSRKGDVLHMHYTGKLEDGTEFDSSLPRNQPFVFSLGTGEVIKGWDQGLLGMCEREKRKLVIPSELGYGERGWPPKIPGGATLVFEVELLKIER | 369 | 35.6 | 373
21 | FKBP-255: FKBP13 DRD-AcGFP construct of Table 10 (protein, Description of sequence: Construct Name: FKBP-255; Mutation(s): Q72R Q84E A117W V85R DRD G99R) HCPIKSRKGDVLHMHYTGKLEDGTEFDSSLPRNQPFVFSLGTGERIKGWDQGLLGMCEREKRKLVIPSELGYGERGWPPKIPGGATLVFEVELLKIER | 101 | 33.0 | 101
